T1: IL-17F (human)
T1 chain: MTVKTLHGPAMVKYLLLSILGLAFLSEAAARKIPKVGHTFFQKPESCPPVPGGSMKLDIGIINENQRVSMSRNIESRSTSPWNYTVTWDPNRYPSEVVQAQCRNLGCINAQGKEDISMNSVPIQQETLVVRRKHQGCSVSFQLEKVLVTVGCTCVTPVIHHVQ

T2: human IL-17A (human)
T2 chain: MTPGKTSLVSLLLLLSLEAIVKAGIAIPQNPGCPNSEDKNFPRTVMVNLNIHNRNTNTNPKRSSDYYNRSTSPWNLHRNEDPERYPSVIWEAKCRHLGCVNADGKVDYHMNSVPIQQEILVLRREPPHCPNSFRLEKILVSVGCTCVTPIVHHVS

T3: IL-17E (human)
T3 chain: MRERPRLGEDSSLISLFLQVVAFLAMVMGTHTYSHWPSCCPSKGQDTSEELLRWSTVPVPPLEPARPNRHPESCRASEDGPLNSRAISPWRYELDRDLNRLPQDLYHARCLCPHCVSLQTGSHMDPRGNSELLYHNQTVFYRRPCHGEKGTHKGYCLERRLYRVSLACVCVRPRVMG

T4: IL-17C (human)
T4 chain: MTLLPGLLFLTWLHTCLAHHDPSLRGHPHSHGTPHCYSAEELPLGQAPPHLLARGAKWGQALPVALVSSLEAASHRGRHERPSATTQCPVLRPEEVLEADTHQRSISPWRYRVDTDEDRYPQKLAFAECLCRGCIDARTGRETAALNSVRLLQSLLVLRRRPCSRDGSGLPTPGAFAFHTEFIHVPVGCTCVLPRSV

T5: IL-17D (human)
T5 chain: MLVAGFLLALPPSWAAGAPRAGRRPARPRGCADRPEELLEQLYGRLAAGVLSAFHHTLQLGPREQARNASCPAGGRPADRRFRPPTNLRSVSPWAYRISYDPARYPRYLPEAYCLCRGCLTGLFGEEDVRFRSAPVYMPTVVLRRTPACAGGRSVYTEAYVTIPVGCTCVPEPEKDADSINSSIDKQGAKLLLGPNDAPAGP

T6: IL-17B (human)
T6 chain: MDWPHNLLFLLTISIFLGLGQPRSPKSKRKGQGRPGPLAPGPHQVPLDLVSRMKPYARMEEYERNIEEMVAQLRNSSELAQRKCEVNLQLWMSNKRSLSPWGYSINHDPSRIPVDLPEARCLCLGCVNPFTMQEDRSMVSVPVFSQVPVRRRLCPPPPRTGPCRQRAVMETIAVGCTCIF


Key:
[1] = molecular target: human TNFa (human); test: SPR
[2] = molecular target: T1, IL-17F; test: competition ELISA
[3] = molecular target: T2, human IL-17A; test: SPR, direct setup
[4] = molecular target: T3, IL-17E; test: competition ELISA
[5] = molecular target: T2, human IL-17A; test: SPR, capture setup
[6] = molecular target: T4, IL-17C; test: competition ELISA
[7] = molecular target: T5, IL-17D; test: competition
[8] = molecular target: T6, IL-17B; test: competition ELISA

Binder	Kd [1] [nM]	binding result [2]	Kd [3] [nM]	binding result [4]	Kd [5] [nM]	binding result [6]	binding result [7]	binding result [8]
A3 TNFa arm (antibody) chain 1: EVQLVESGGGLVQPGGSLRLSCAASGFSLSSNAMGWVRQAPGKGLEYIGIISVGGFTYYASWAKGRFTISRDNSKNTVYLQMNSLRAEDTATYFCARDRHGGDSSGAFYLWGQGTLVTVSSASTKGPSVFPLAPSSKSTSGGTAALGCLVKDYFPEPVTVSWNSGALTSGVHTFPAVLQSSGLYSLSSVVTVPSSSLGTQTYICNVNHKPSNTKVDKKVEPKSCGGGGSGGGGSDIQMTQSPSSLSASVGDRVTITCQASQTINYWLAWYQQKPGKAPKLLIYRASTLASGVPSRFSGSGSGTDFTLTISSLQPEDFATYYCQNYYYSTSRSYGFGGGTKLTVLGGGGGSGGGGSGGGGSGGGGSEVQLVESGGGLVQPGGSLRLSCAASGFSFSSDYWMCWVRQAPGKGLEWIGCIYAGDVDDTDYASWARGRFTISRDNSKNTVYLQMNSLRAEDTAVYYCARVDGFDITYFDLWGQGTLVTVSS chain 2: DIQMTQSPSSLSASVGDRVTITCQSSESVYSNNQLSWYQQKPGQPPKLLIYDASDLASGVPSRFSGSGSGTDFTLTISSLQPEDFATYYCAGGFSSSSDTAFGGGTKLTVLGRTRTVAAPSVFIFPPSDEQLKSGTASVVCLLNNFYPREAKVQWKVDNALQSGNSQESVTEQDSKDSTYSLSSTLTLSKADYEKHKVYACEVTHQGLSSPVTKSFNRGECGGGGSGGGGSDIQMTQSPSSLSASVGDRVTINCQASESISSWLAWYQQKPGKRPKLLIYKASTLASGVPSRFSGSGSGTDYTLTISSLQPEDFATYYCQGYYLDSSVDDNVFGGGTKLTVLGGGGGSGGGGSGGGGSGGGGSEVQLVESGGGLVQPGGSLRLSCAASGIDFSTYGISWVRQAPGKGLEWIAYIYPDYGITDYASWVNGRFTISLDNAQNTVYLQMNSLRAEDTAVYYCARSGSYYSRGWGAHYFNLWGQGTLVTVSS	< 0.0232							
PRO592 (27-31-C04-sc02) (antibody) DIQMTQSPSSLSASVGDRVTITCQASESIYRYLSWYQQKPGKAPKLLIYLASTLTSGVPSRFSGSGSGTDFTLTISSLQPEDFATYYCQSNFGTASTTYYNTFGGGTKLTVLGGGGGSGGGGSGGGGSGGGGSEVQLVESGGGLVQPGGSLTLSCAASGFSFSGFYYMCWVRQAPGKGLEWIGCIDTGDGTTYYASWAKGRFTISRDNSKNTVYLQMNSLRAEDTAVYYCARDAAYGGYAYPAHGMDLWGPGTLVTVSS		no binding	0.038	no binding	0.37	no binding	no binding	no binding
A2 (27-07-G02-sc02) (antibody) DIQMTQSPSSLSASVGDRVTITCQASQTINYWLAWYQQKPGKPPKLLIYRASTLASGVPSRFSGSGSGTDFTLTISSLQPEDFATYYCQNYYYSTSRSYGFGGGTKLTVLGGGGGSGGGGSGGGGSGGGGSEVQLVESGGGLVKPEGSLRLSCAASGFSFSSDYWMCWVRQAPGKGLEWIACIYAGDVDDTDYASWARGRFTISRDNSKNTVYLQMNSLRAEDTAVYYCARVDGFDITYFDLWGQGTLVTVSS		no binding	0.055	no binding	3	no binding	no binding	no binding

Source: patent US20260217814 (published 2026)
